Reference: PMC8727134

B1: MT1 (dsDNA)
DNA 1: GAAAAATAACGTATGG
DNA 2: CCATACGTTATTTTTC
B2: MT2 (dsDNA)
DNA 1: AGCTCCGTTATAGAAT
DNA 2: ATTCTATAACGGAGCT
B3: WT2 (dsDNA)
DNA 1: AGCTCTGTGGTAGAAT
DNA 2: ATTCTACCACAGAGCT

Molecular target: RUNX1 Runt domain (His6-RUNX1);CBFbeta (His6-CBFβ) (mouse;mouse, UniProt Q03347;Q08024 24-189;1-187, |)
Assay: EMSA

Sequence of RUNX1 Runt domain (His6-RUNX1);CBFbeta (His6-CBFβ) (Q03347 24-189, chain 1 of 2): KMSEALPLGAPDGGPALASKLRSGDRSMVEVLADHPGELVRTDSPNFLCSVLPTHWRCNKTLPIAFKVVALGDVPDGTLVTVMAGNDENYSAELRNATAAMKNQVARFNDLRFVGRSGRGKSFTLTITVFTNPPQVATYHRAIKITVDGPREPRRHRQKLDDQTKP
Sequence of RUNX1 Runt domain (His6-RUNX1);CBFbeta (His6-CBFβ) (Q08024 whole entry, chain 2 of 2, the tested form may be a part): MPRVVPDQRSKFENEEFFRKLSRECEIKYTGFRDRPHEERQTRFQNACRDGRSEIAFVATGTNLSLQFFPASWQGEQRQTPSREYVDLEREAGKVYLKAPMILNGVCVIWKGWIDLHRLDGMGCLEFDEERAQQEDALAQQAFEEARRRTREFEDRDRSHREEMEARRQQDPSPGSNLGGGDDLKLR

Binding result, no binding:
B1, B2, B3
